Laboratory results reported in patent publication US20090149389A1 (PURDUE RESEARCH FOUNDATION, published 2009).

Assays:
Assay in all cases: cell-based or functional assay
Lck (h) = Lck (h) (human (h), UniProt P06239 1-509)
PKA (h) = PKA (h) (human (h), UniProt P17612 1-351)
JNK1α1 (h) = JNK1α1 (h) (human (h), UniProt P45983-2 1-384)
Ret (h) [1] = molecular target: T1, Ret (h) (human (h), UniProt P07949 658-1114, limits assumed)
T1 sequence (looked up): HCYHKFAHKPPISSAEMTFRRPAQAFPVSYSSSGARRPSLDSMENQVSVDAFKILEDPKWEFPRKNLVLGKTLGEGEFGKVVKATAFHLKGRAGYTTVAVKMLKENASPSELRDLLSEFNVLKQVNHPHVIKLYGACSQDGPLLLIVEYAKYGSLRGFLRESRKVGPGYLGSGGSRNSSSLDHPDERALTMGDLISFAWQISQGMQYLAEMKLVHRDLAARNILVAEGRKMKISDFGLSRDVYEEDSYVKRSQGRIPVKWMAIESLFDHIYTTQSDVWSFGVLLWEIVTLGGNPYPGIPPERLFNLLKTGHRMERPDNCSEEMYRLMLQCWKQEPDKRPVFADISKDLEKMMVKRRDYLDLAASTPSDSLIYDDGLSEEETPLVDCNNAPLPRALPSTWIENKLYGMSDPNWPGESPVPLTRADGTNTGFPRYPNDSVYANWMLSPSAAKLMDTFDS

PKB β (h) = PKB β (h) (human (h), UniProt P31751 1-481, limits assumed)
JAK3 (h) = JAK3 (h) (human (h), UniProt P52333 781-1124, limits assumed)
KDR (tl) = KDR (tl) (UniProt P35968 790-1356, limits assumed)
EGFR (h) = EGFR (h) (human (h), UniProt P00533 696-1210, limits assumed)
PDGFRβ (h) = PDGFRβ (h) (human (h), UniProt P09619 558-1106, limits assumed)
ASK1 (h) = ASK1 (h) (human (h), UniProt Q99683 649-946, limits assumed)
PhKγ2 (h) = molecular target: T2, PhKγ2 (h) (human (h), UniProt P15735 1-406)
T2 sequence (looked up): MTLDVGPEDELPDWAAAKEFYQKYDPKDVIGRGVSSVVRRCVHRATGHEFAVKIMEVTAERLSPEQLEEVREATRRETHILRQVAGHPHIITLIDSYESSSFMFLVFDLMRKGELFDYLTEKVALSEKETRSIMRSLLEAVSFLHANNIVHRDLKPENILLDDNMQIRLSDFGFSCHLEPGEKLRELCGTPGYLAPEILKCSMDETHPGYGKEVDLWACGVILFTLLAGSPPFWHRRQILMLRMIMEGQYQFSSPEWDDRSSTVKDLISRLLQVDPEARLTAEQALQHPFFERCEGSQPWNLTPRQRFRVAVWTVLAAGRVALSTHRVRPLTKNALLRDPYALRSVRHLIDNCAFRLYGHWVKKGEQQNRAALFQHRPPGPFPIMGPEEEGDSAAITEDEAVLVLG

CK2 (h) = CK2 (h) (human (h), UniProt P68400 1-391)
MLCK (h) = MLCK (h) (human (h))
IGF-IR (h) = IGF-IR (h) (human (h), UniProt P08069 959-1367, limits assumed)
MEKI (h) = MEKI (h) (human (h), UniProt Q02750 1-393)
Rsk2 (h) = Rsk2 (h) (human (h), UniProt P51812 1-740)
ROCK-1 (h) = ROCK-1 (h) (human (h), UniProt Q13464 17-535, limits assumed)
CKIB (h) = CKIB (h) (human (h))
cKit (h) = cKit (h) (human (h), UniProt P10721 544-976, limits assumed)
Tie2 (h) = Tie2 (h) (human (h), UniProt Q02763 771-1124, limits assumed)
Ret (h) [2] = molecular target: T1, Ret (h); remark: listed apart in the source
Aurora-A (h) = molecular target: T3, Aurora-A (h) (human (h), UniProt O14965 1-403)
T3 sequence (looked up): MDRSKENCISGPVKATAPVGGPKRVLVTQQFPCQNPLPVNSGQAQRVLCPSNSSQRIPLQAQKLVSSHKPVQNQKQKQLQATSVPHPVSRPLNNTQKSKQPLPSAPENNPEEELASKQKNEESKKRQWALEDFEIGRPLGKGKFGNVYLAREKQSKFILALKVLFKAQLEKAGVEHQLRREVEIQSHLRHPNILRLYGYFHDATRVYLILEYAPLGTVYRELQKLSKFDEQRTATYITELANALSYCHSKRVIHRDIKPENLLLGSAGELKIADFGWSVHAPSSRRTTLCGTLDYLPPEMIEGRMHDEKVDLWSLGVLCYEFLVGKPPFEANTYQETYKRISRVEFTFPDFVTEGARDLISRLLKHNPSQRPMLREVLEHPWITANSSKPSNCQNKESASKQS

TrkA (h) = TrkA (h) (human (h), UniProt P04629 441-796, limits assumed)

Sequence of Tie2 (h) (Q02763 771-1124 limits assumed): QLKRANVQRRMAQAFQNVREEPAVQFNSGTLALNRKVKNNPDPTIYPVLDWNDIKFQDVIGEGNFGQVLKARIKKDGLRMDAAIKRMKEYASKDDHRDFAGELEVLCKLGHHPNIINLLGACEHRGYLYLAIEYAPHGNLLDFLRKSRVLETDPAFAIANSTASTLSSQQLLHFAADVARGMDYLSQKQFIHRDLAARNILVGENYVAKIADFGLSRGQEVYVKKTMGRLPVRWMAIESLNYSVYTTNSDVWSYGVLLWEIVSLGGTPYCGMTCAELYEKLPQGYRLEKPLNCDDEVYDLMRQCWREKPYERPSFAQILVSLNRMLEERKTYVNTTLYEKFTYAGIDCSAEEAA
Sequence of PDGFRβ (h) (P09619 558-1106 limits assumed): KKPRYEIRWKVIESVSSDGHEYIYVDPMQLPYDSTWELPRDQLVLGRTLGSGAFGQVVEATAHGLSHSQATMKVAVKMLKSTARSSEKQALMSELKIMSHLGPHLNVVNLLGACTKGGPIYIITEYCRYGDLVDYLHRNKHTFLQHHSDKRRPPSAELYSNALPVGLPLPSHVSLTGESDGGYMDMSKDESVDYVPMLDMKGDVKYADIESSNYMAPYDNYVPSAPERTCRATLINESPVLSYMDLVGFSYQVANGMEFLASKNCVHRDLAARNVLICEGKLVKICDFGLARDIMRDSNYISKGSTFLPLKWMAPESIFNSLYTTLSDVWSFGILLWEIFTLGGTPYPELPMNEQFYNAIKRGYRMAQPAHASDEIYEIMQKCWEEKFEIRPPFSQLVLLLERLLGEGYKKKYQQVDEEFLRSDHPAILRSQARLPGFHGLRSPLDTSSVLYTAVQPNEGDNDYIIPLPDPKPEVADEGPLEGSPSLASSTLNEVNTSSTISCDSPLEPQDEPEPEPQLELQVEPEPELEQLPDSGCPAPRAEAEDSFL
Sequence of JNK1α1 (h) (P45983 other isoform, or with tags, fused parts or gaps limits assumed): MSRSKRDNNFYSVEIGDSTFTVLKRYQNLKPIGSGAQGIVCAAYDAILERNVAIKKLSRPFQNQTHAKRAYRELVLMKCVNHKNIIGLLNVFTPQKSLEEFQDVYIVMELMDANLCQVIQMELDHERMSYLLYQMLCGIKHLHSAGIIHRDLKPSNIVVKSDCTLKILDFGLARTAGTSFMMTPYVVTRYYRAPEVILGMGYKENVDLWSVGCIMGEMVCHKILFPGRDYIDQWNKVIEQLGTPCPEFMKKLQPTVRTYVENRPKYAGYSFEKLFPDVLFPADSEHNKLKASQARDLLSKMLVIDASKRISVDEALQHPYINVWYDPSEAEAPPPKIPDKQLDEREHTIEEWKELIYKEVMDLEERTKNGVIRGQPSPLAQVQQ
Sequence of ROCK-1 (h) (Q13464 17-535 limits assumed): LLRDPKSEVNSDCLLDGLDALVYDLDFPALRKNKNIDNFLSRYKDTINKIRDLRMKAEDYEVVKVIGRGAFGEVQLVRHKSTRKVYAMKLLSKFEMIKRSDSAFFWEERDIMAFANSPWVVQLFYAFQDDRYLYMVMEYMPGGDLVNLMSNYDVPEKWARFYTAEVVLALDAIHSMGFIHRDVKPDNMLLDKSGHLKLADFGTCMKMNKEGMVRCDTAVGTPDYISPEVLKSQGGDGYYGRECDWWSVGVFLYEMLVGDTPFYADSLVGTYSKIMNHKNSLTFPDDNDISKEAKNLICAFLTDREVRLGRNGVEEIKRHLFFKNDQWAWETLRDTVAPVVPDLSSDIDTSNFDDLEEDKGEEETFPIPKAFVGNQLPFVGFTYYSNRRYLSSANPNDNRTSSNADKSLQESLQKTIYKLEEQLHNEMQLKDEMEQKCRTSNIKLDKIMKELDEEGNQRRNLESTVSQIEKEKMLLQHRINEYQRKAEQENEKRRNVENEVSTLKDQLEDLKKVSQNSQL
Sequence of CK2 (h) (P68400 whole entry): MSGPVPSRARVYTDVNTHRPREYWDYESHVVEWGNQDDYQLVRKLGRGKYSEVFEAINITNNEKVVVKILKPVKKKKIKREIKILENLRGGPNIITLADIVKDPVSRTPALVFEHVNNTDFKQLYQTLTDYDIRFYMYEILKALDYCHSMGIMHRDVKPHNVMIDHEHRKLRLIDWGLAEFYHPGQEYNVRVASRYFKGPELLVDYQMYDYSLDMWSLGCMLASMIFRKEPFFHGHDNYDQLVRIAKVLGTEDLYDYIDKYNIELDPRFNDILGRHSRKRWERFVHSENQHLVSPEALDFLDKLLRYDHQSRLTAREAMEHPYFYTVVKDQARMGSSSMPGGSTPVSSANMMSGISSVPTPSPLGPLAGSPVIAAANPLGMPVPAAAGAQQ
Sequence of Lck (h) (P06239 whole entry): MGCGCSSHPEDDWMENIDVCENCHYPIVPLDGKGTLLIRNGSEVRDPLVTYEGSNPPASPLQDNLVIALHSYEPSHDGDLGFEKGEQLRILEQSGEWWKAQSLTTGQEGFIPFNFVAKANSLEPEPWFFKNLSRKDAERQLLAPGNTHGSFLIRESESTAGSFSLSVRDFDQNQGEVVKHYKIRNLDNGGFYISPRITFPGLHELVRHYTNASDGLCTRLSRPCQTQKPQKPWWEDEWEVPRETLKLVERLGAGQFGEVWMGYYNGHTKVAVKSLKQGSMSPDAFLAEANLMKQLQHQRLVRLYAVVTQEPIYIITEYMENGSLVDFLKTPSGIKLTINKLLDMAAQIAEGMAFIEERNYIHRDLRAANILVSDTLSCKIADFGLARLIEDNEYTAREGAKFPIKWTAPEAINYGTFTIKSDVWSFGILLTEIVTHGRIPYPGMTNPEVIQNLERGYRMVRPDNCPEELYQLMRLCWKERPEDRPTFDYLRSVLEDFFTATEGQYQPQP
Sequence of Rsk2 (h) (P51812 whole entry): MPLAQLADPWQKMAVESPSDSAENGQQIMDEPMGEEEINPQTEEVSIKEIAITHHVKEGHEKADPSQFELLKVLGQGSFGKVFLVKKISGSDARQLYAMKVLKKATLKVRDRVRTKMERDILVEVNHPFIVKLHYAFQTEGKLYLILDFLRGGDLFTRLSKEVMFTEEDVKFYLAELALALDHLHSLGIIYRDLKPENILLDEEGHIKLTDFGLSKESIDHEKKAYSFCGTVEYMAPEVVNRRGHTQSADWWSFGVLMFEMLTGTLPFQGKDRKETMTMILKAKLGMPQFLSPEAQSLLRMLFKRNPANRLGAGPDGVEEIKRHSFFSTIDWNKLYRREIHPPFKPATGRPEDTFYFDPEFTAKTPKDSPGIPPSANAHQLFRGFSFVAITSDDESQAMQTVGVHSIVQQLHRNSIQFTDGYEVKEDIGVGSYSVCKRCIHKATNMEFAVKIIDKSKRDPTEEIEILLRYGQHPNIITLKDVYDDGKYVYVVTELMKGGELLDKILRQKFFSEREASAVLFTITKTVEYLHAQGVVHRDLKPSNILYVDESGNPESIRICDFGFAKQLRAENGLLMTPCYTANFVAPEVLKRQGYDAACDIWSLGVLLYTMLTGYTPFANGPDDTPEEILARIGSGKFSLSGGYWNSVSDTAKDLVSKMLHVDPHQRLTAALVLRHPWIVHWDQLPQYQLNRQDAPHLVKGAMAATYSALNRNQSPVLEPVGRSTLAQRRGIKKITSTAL
Sequence of IGF-IR (h) (P08069 959-1367 limits assumed): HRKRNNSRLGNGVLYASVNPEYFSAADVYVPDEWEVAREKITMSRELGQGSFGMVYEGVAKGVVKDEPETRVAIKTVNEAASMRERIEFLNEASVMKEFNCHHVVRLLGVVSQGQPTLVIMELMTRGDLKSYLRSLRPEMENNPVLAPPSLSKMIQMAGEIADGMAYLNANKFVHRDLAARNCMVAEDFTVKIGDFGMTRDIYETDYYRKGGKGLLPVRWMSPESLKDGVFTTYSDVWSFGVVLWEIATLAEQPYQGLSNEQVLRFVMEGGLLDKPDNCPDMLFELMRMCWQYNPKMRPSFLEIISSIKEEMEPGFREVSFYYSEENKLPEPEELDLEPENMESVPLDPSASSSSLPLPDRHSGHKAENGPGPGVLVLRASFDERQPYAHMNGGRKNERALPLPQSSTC
Sequence of PKB β (h) (P31751 whole entry): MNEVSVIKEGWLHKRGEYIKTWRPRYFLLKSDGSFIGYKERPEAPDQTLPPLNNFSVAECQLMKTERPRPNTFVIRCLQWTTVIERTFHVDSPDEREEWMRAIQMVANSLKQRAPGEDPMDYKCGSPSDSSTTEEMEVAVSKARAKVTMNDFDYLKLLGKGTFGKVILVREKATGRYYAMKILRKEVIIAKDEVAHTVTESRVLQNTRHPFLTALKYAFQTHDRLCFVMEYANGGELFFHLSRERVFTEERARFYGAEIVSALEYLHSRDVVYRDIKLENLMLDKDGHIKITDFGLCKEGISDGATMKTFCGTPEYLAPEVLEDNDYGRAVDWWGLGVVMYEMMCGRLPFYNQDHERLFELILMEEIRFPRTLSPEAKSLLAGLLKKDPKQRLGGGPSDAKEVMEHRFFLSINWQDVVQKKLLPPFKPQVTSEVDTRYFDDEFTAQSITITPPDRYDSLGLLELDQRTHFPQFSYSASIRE
Sequence of ASK1 (h) (Q99683 649-946 limits assumed): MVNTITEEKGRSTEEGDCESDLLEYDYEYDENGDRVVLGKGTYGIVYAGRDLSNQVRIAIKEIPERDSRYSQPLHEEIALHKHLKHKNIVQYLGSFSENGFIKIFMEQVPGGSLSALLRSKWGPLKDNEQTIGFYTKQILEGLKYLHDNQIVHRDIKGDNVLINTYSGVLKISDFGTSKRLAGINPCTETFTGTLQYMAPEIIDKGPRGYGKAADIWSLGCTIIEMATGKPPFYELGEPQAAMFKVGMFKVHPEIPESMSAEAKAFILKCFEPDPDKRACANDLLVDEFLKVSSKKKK

KAFAKLAARLYRKALARQLGVAA
Profile-1 @ = 100 µm (kinase profiler assay) (Lck (h)): 847 | Profile-1 @ = 100 µm (kinase profiler assay) (PKA (h)): 103 | Profile-1 @ = 100 µm (kinase profiler assay) (JNK1α1 (h)): 92 | Profile-1 @ = 100 µm (kinase profiler assay) (Ret (h) [1]): 117 | Profile-1 @ = 100 µm (kinase profiler assay) (PKB β (h)): 28 | Profile-1 @ = 100 µm (kinase profiler assay) (JAK3 (h)): 91 | Profile-1 @ = 100 µm (kinase profiler assay) (KDR (tl)): 56 | Profile-1 @ = 100 µm (kinase profiler assay) (EGFR (h)): 16 | Profile-1 @ = 100 µm (kinase profiler assay) (PDGFRβ (h)): 66 | Profile-1 @ = 100 µm (kinase profiler assay) (ASK1 (h)): 48 | Profile-1 @ = 100 µm (kinase profiler assay) (PhKγ2 (h)): 27 | Profile-1 @ = 100 µm (kinase profiler assay) (CK2 (h)): 79 | Profile-1 @ = 100 µm (kinase profiler assay) (MLCK (h)): 2 | Profile-1 @ = 100 µm (kinase profiler assay) (IGF-IR (h)): 76 | Profile-1 @ = 100 µm (kinase profiler assay) (MEKI (h)): 66 | Profile-1 @ = 100 µm (kinase profiler assay) (Rsk2 (h)): 6

WLRRIKAWLRRIKALNRQLGVAA
Profile-1 @ = 30 µm (kinase profiler assay) (ROCK-1 (h)): 0 | Profile-1 @ = 30 µm (kinase profiler assay) (CKIB (h)): 52 | Profile-1 @ = 30 µm (kinase profiler assay) (cKit (h)): 23 | Profile-1 @ = 30 µm (kinase profiler assay) (Tie2 (h)): 17 | Profile-1 @ = 30 µm (kinase profiler assay) (Ret (h) [2]): 117 | Profile-1 @ = 30 µm (kinase profiler assay) (Aurora-A (h)): 46 | Profile-1 @ = 30 µm (kinase profiler assay) (TrkA (h)): 6
